T1: APBA2_1, Q99767
T1 sequence (Q99767 563-664, limits assumed, looked up): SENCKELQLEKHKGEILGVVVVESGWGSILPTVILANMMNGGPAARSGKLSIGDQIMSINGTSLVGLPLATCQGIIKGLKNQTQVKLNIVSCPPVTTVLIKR

T2: DFNB31_3, Q9P202
T2 sequence (Q9P202 811-907, limits assumed, looked up): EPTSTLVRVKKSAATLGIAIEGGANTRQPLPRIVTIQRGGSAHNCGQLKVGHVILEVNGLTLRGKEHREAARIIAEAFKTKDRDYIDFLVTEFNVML

T3: DLG3_3, Q92796
T3 sequence (Q92796 374-475, limits assumed, looked up): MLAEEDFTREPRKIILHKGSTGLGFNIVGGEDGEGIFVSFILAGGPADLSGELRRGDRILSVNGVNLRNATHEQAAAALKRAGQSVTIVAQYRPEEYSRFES

T4: GRIP1_7, Q9Y3R0
T4 sequence (Q9Y3R0 999-1096, limits assumed, looked up): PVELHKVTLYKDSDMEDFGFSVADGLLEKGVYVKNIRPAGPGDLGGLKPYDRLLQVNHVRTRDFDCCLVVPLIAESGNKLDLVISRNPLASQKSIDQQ

T5: HTRA4, P83105
T5 sequence (P83105 378-476, limits assumed, looked up): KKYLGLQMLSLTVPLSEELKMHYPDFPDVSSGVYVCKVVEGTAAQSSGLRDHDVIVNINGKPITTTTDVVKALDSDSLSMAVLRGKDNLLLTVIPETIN

T6: NHERF3_1, Q5T2W1
T6 sequence (Q5T2W1 4-100, limits assumed, looked up): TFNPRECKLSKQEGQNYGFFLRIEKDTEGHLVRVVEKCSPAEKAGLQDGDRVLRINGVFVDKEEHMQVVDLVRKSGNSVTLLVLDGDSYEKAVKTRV

T7: PDZD2_2, O15018
T7 sequence (O15018 329-429, limits assumed, looked up): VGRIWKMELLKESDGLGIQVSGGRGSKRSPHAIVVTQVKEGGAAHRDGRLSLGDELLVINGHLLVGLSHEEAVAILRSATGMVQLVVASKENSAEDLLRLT

T8: TJP3_3, O95049
T8 sequence (O95049 375-456, limits assumed, looked up): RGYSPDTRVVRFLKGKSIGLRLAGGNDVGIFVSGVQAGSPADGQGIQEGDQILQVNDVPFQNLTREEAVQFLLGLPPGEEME


Tests used:
Assay in all cases: holdup assay
Set-up in all cases: key: below the threshold = too weak to quantify, mostly under pKd 3.1 to 4
Settings in all cases: plain residues with an end cap or a label only (N-terminal biotin on a linker: ttds)
APBA2_1, Q99767 = biological target: T1, APBA2_1, Q99767
DFNB31_3, Q9P202 = biological target: T2, DFNB31_3, Q9P202
DLG1_3, Q12959 = biological target: DLG1_3, Q12959
Sequence of DLG1_3, Q12959 (Q12959 457-571): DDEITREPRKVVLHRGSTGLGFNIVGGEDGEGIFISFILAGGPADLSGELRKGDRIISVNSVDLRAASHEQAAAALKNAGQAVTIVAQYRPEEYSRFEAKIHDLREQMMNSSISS

DLG2_2, Q15700 = biological target: DLG2_2, Q15700
Sequence of DLG2_2, Q15700 (Q15700 189-283): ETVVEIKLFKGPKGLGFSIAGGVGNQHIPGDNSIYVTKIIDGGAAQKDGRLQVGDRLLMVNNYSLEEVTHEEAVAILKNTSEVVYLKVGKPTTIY

DLG3_3, Q92796 = biological target: T3, DLG3_3, Q92796
DLG4_1, P78352 = biological target: DLG4_1, P78352
Sequence of DLG4_1, P78352 (P78352 62-152): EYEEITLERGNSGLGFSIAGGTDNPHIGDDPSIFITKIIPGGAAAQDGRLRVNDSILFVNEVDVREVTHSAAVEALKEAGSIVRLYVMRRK

DLG4_2, P78352 = biological target: DLG4_2, P78352
Sequence of DLG4_2, P78352 (P78352 155-259): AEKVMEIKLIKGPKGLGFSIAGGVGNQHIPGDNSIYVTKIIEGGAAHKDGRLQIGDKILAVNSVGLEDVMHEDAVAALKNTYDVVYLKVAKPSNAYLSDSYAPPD

DLG4_3, P78352 = biological target: DLG4_3, P78352
Sequence of DLG4_3, P78352 (P78352 306-403): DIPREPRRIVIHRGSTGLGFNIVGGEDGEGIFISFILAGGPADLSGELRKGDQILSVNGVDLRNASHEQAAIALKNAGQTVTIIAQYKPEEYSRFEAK

FRMPD2_1, Q68DX3 = biological target: FRMPD2_1, Q68DX3
Sequence of FRMPD2_1, Q68DX3 (Q68DX3 770-861): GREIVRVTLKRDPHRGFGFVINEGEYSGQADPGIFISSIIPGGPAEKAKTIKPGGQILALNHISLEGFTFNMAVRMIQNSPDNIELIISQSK

FRMPD4, Q14CM0 = biological target: FRMPD4, Q14CM0
Sequence of FRMPD4, Q14CM0 (Q14CM0 67-160): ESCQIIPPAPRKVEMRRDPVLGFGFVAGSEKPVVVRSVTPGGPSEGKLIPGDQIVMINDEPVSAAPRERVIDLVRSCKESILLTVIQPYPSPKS

GOPC, Q9HD26 = biological target: GOPC, Q9HD26
GORASP2, Q9H8Y8 = biological target: GORASP2, Q9H8Y8
GRIP1_7, Q9Y3R0 = biological target: T4, GRIP1_7, Q9Y3R0
GRIP2_3, Q9C0E4 = biological target: GRIP2_3, Q9C0E4
Sequence of GRIP2_3, Q9C0E4 (Q9C0E4 238-339): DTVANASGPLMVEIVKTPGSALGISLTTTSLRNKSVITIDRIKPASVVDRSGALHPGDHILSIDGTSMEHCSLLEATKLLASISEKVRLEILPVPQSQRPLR

HTRA4, P83105 = biological target: T5, HTRA4, P83105
Inadl_2, Q8NI35 = biological target: Inadl_2, Q8NI35
Sequence of Inadl_2, Q8NI35 (Q8NI35 238-335): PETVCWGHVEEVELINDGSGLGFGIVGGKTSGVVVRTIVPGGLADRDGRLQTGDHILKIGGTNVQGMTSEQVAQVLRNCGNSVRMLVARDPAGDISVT

Inadl_8, Q8NI35 = biological target: Inadl_8, Q8NI35
Sequence of Inadl_8, Q8NI35 (Q8NI35 1425-1530): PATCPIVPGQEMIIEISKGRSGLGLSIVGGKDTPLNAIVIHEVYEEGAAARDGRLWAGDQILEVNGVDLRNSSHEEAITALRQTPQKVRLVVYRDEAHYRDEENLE

LIMK2, P53671 = biological target: LIMK2, P53671
Sequence of LIMK2, P53671 (P53671 143-248): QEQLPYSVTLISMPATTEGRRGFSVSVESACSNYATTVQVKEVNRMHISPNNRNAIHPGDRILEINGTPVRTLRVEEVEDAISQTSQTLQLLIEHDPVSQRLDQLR

LNX1_1, Q8TBB1 = biological target: LNX1_1, Q8TBB1
Sequence of LNX1_1, Q8TBB1 (Q8TBB1 261-371): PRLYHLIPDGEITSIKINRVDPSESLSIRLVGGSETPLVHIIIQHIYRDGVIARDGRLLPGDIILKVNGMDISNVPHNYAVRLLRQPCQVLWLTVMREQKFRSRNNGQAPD

LNX1_3, Q8TBB1 = biological target: LNX1_3, Q8TBB1
Sequence of LNX1_3, Q8TBB1 (Q8TBB1 500-596): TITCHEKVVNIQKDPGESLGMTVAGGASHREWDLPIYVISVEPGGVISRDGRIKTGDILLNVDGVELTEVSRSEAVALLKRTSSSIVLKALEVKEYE

MAGI2_3, Q86UL8 = biological target: MAGI2_3, Q86UL8
Sequence of MAGI2_3, Q86UL8 (Q86UL8 600-682): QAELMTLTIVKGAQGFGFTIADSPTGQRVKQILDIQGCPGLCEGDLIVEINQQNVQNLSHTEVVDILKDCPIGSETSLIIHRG

MAGI2_5, Q86UL8 = biological target: MAGI2_5, Q86UL8
Sequence of MAGI2_5, Q86UL8 (Q86UL8 915-1017): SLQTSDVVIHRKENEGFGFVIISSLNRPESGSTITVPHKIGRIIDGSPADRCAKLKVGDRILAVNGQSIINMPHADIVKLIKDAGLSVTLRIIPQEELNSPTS

MAST2, Q6P0Q8 = biological target: MAST2, Q6P0Q8
Sequence of MAST2, Q6P0Q8 (Q6P0Q8 1099-1202): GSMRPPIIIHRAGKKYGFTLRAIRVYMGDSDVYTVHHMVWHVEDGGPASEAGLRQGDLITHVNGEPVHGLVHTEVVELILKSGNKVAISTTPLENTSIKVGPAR

NHERF3_1, Q5T2W1 = biological target: T6, NHERF3_1, Q5T2W1
NHERF4_1, Q86UT5-2 = biological target: NHERF4_1, Q86UT5-2
Sequence of NHERF4_1, Q86UT5-2 (Q86UT5 other isoform, or with tags, fused parts or gaps): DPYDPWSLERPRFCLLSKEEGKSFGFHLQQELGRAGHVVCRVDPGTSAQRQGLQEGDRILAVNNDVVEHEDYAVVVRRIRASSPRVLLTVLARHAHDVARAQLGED

NHERF4_4, Q86UT5 = biological target: NHERF4_4, Q86UT5
Sequence of NHERF4_4, Q86UT5 (Q86UT5 464-550): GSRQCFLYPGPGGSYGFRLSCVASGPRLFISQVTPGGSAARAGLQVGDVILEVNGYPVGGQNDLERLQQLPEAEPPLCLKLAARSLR

PDZD2_2, O15018 = biological target: T7, PDZD2_2, O15018
SCRIB_1, Q14160 = biological target: SCRIB_1, Q14160
Sequence of SCRIB_1, Q14160 (Q14160 718-814): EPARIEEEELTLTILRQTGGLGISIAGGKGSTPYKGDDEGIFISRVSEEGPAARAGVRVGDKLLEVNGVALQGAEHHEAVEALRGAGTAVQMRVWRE

SCRIB_2, Q14160 = biological target: SCRIB_2, Q14160
Sequence of SCRIB_2, Q14160 (Q14160 857-960): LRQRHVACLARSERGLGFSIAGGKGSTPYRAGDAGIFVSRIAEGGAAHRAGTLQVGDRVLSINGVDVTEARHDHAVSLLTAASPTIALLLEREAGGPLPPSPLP

SNX27, Q96L92 = biological target: SNX27, Q96L92
TJP3_3, O95049 = biological target: T8, TJP3_3, O95049

Binder | pKd (APBA2_1, Q99767) | pKd (DFNB31_3, Q9P202) | pKd (DLG1_3, Q12959) | pKd (DLG2_2, Q15700) | pKd (DLG3_3, Q92796) | pKd (DLG4_1, P78352) | pKd (DLG4_2, P78352) | pKd (DLG4_3, P78352) | pKd (FRMPD2_1, Q68DX3) | pKd (FRMPD4, Q14CM0) | pKd (GOPC, Q9HD26) | pKd (GORASP2, Q9H8Y8) | pKd (GRIP1_7, Q9Y3R0) | pKd (GRIP2_3, Q9C0E4) | pKd (HTRA4, P83105) | pKd (Inadl_2, Q8NI35) | pKd (Inadl_8, Q8NI35) | pKd (LIMK2, P53671) | pKd (LNX1_1, Q8TBB1) | pKd (LNX1_3, Q8TBB1) | also measured
PVRVCEETSL [OTULIN, Q96BN8] | below the threshold | 3.49 | 4.14 | 3.87 | 4.02 | 4.11 | 4.2 | 3.96 | below the threshold | 4.59 | 4.44 | below the threshold | 3.75 | 3.57 | below the threshold | below the threshold | 3.61 | below the threshold | below the threshold | below the threshold | pKd (MAGI2_3, Q86UL8): below the threshold; pKd (MAGI2_5, Q86UL8): 4.13; pKd (MAST2, Q6P0Q8): 5.28; pKd (NHERF3_1, Q5T2W1): 5.92; pKd (NHERF4_1, Q86UT5-2): 4.02; pKd (NHERF4_4, Q86UT5): below the threshold; pKd (PDZD2_2, O15018): 3.54; pKd (SCRIB_1, Q14160): 5.44; pKd (SCRIB_2, Q14160): 4.7; pKd (SNX27, Q96L92): 5.58; pKd (TJP3_3, O95049): below the threshold
FHPLGADSQV [SLC2A1, P11166] | below the threshold | below the threshold | below the threshold | 3.65 | below the threshold | 3.51 | 3.95 | below the threshold | below the threshold | below the threshold | below the threshold | below the threshold | 3.55 | below the threshold | below the threshold | below the threshold | below the threshold | below the threshold | below the threshold | below the threshold | pKd (MAGI2_3, Q86UL8): below the threshold; pKd (MAGI2_5, Q86UL8): below the threshold; pKd (MAST2, Q6P0Q8): 4.25; pKd (NHERF3_1, Q5T2W1): below the threshold; pKd (NHERF4_1, Q86UT5-2): below the threshold; pKd (NHERF4_4, Q86UT5): below the threshold; pKd (PDZD2_2, O15018): 4.22; pKd (SCRIB_1, Q14160): 4.02; pKd (SCRIB_2, Q14160): below the threshold; pKd (SNX27, Q96L92): 4.05; pKd (TJP3_3, O95049): below the threshold
SGSRPSATVV [HPV73-E6, Q82005] | below the threshold | below the threshold | below the threshold | 4.03 | below the threshold | 3.97 | 4.14 | below the threshold | 3.51 | below the threshold | 3.59 | 4.13 | 3.83 | below the threshold | 3.86 | below the threshold | 3.53 | below the threshold | 3.74 | below the threshold | pKd (MAGI2_3, Q86UL8): 3.62; pKd (MAGI2_5, Q86UL8): 3.7; pKd (MAST2, Q6P0Q8): 3.88; pKd (NHERF3_1, Q5T2W1): below the threshold; pKd (NHERF4_1, Q86UT5-2): below the threshold; pKd (NHERF4_4, Q86UT5): below the threshold; pKd (PDZD2_2, O15018): 4.11; pKd (SCRIB_1, Q14160): below the threshold; pKd (SCRIB_2, Q14160): 3.56; pKd (SNX27, Q96L92): below the threshold; pKd (TJP3_3, O95049): below the threshold
